Source: patent US10239923B2, “Specific amyloid beta binding peptides and the use of same for treating and diagnosing alzheimer's dementia” (Forschungszentrum Juelich GmbH, priority 2015, dated 2019)
Square brackets hold non-standard residues; d marks the D form.

How the values were obtained:
PC-12 cells = assay: MTT reduction test, Aβ1-42-induced cell toxicity; type: cell-based; conditions: 0.1% TritonX-100, positive control for cell toxicity
Procedure: The samples were placed in the culture medium of the cells and were incubated over 24 hours with the cells at 37° C. The viability of the cells was then determined on the basis of an MTT test. Here, a metabolic reactant was supplied to the cells, which reactant could be converted by metabolically active cells (living cells). Formazan crystals are the product of this conversion and can be dissolved. The coloration of the medium after solubilization corresponds to the conversion rate of the reactant and therefore the viability of the cells. Untreated cells (medium, white chequered pattern) served as living control, and the proportion of vital cells was defined as 100%. The values of the other batches were normalized to this value.

[1] = target: Aβ1-42 species of different size (Homo sapiens, UniProt P05067); assay: Density gradient centrifugation, tris-tricine SDS gel and silver staining of Aβ1-42 species; type: biochemical; conditions: 80 μM Aβ1-42 pre-incubated […], 40 μM peptide for 40 minutes
Procedure: The batch was then incubated either with or without addition of peptide for a further 40 minutes and was then placed on an iodixanol density gradient. The gradient was then centrifuged, wherein the contents of the sample (Aβ1-42 species of different size) diffused within the gradient in accordance with their size and shape. The gradient was fractionated after centrifugation into 15 fractions (1-15), and the first 14 individual fractions were applied to a tris-tricine SDS gel. The contents per fraction were separated electrophoretically. […] The batch was then incubated either without (A) or with addition of different concentrations of Mosd1 (B=10 μM Mossd1; C=20 μM Mosd1; D=40 μM Mosd1; E=80 μM Mosd1) for a further 40 minutes and was then placed on an iodixanol density gradient. The gradient was then centrifuged, wherein the contents of the sample (Aβ1-42 species of different size) diffused within the gradient in accordance with their size and shape. The gradient was fractionated after centrifugation (1-15), and the individual fractions were applied to a tris-tricine SDS gel. The contents per fraction were separated electrophoretically.

Aβ1-42 = Aβ1-42 (Homo sapiens, UniProt P05067); assay: ThT test, modulation of Aβ1-42 aggregation; type: biochemical; conditions: 10 μM Aβ1-42, equimolar peptide, versus Aβ1-42 alone = 100%
Description: FIG. 3: The average relative fluorescence from seven independently performed ThT experiments with standard deviation is shown. The dye Thioflavin T (ThT) binds to β-pleated sheet structures in the batch and thereupon changes its fluorescence spectrum. […] The time in which the logarithmic rise of the fluorescence signal transitioned into a stationary phase was set to 100%.

[2] = target: T1, Aβ1-42 monomers versus Aβ1-42 oligomers and fibrils (biotinylated, D-enantiomeric, immobilized) (Homo sapiens, UniProt P05067); assay: Monoclonal phage ELISA; type: binding; conditions: individual phage clones; species immobilized at 320 nM; absorption at 450 nm normalized with 6E10 control; higher = more monomer-specific
T1 construct: biotinylated, D-enantiomeric Aβ1-42 monomers
Description: The specificity of the peptide results from the difference in % of the absorption values for the target molecule or the bait (for example A beta monomer) and the normalized absorption values for the competitors (for example A beta oligomers and fibrils) in the monoclonal phage ELISA.
The absorption values then constitute the affinity of individual phage clones for a particular immobilized A beta species. Here, the specificity is not dependent on the strength of the affinity, but instead only on the difference of the affinities between the species. […] The terms “competitors” and “target molecule” or “bait” are defined as specified below.
A method for normalizing the obtained values should therefore be performed. From all absorption values of the individual phage clone in the monoclonal phage ELISA, the values of the phage antibodies tested for cross-reaction can be used as background. This occurs in accordance with the previously immobilized species. The signal values of the phage antibody from the reaction trays with immobilized Aβ1-42 oligomers for this purpose can be removed from the signal values of the individual phage clone from the reaction trays with immobilized Aβ1-42 oligomers. A similar process is then carried out for Aβ1-42 monomers. In this way, a possible background signal of the phage antibody can initially be calculated from the signals of the individual phage clone. […] Only in this way is an equal interpretation of the results particularly in respect of the assessment of the specificity of the individual phage clone possible (see FIG. 2).
The affinity of individual phage clones with respect to the target molecule and the competitors was examined by means of ELISA. For this purpose, all three species were immobilized in biotinylated form on a polystyrene surface at streptavidin bound thereon. Since, during the panning rounds, oligomers and fibrils were added at the same time as competitors, these two species were immobilized in the monoclonal phage ELISA, likewise mixed. […] The streptavidin-coated microtiter plates were pre-washed as specified by the manufacturer. […] For immobilization, 100 μl were used per reaction tray and were incubated for 15 minutes at room temperature. After having washed the entire plate(s) twice with 150 μl 1×TBS per reaction tray, a blocking step with 150 μl 1×TBS/0.1% (v/v) Tween-20/1% (w/v) BSA was performed for an hour at room temperature. Three washing steps with 150 μl 1×TBS/0.1% (v/v) Tween-20 then followed per reaction tray. The amplified individual phage clones were mixed 1:1 with 1× TBS/1% (w/v) BSA. The antibody 6E10 was diluted 1:10,000 in 1×TBS/0.1% (v/v) Tween-20. […] After washing five times with 150 μl 1×TBS/0.1% (v/v) Tween-20 per reaction tray, 200 μl 1×TBS/0.1% (v/v) Tween-20 were placed in each reaction tray, and the plate(s) incubated for one hour at room temperature. The solutions were removed and replaced as follows: In all reaction trays that had been incubated previously with individual phage clone dilutions or the batch without phages, 100 μl of a phage antibody diluted 1:5,000 in 1×TBS/0.1% (v/v) Tween-20 were now added. The enzyme horseradish peroxidase (HRP) was coupled to this antibody and later served for the conversion of a substrate (TMB). […] At the same time, 100 μl of a second antibody diluted 1:1,000 in 1×TBS/0.1% (v/v) Tween-20 were now added to all reaction trays that had been previously incubated with the dilution of the 6E10 antibody, said second antibody being able to identify and bind to the 6E10 antibody originating from mice. This antibody is also HRP-coupled and thus allows a quantification of the binding of the first antibody to the immobilized target molecules or the plastics surface of the reaction tray. After one hour of incubation at room temperature, the plate(s) was/were washed 10 times with 150 μl 1×TBS/0.1% (v/v) Tween-20 per reaction tray. The signal was detected by adding the substrate 3,3′,5,5′-tetramethylbenzidine (TMB). […]

transgenic AD mice = conditions: oral administration in drinking water; cited from earlier work

Chain of Aβ1-42 species of different size (P05067 672-713 limits assumed): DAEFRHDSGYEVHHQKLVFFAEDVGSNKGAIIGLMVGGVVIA
Chain of Aβ1-42 (P05067 672-713 limits assumed): as above
T1 sequence (P05067 672-713): as the sequence (P05067 672-713 limits assumed) above

Substance | amount of viable cells (untreated cells = 100%) (PC-12 cells) | oligomeric Aβ1-42 species (fractions 4-7) [1] | proportions of high-molecular Aβ1-42 species (fractions 10-14) [1] | relative ThT fluorescence (formation of β-pleated sheet structures) (Aβ1-42) | Difference in signal strength between Aβ1-42 monomers (100%) and Aβ1-42 oligomers and fibrils [2] | cognitive capabilities (transgenic AD mice) | plaques (transgenic AD mice)
TritonX-100 [reference compound] | 1.5% | – | – | – | – | – | –
GTMLKFSGMNLT (H-G[dT][dM][dL][dK][dF][dS]G[dM][dN][dL][dT]-NH2; SMILES CSCC[C@@H](NC(=O)CNC(=O)[C@@H](CO)NC(=O)[C@@H](Cc1ccccc1)NC(=O)[C@@H](CCCCN)NC(=O)[C@@H](CC(C)C)NC(=O)[C@@H](CCSC)NC(=O)[C@H](NC(=O)CN)[C@H](C)O)C(=O)N[C@H](CC(N)=O)C(=O)N[C@H](CC(C)C)C(=O)N[C@@H](C(N)=O)[C@H](C)O) [Mosd3] | – | reduce | increase | increase the ThT fluorescence | 59.955% | – | –
HTWTTYDYVWRL (H-[dH][dT][dW][dT][dT][dY][dD][dY][dV][dW][dR][dL]-NH2; SMILES CC(C)C[C@@H](NC(=O)[C@@H](CCCNC(=N)N)NC(=O)[C@@H](Cc1c[nH]c2ccccc12)NC(=O)[C@H](NC(=O)[C@@H](Cc1ccc(O)cc1)NC(=O)[C@@H](CC(=O)O)NC(=O)[C@@H](Cc1ccc(O)cc1)NC(=O)[C@H](NC(=O)[C@H](NC(=O)[C@@H](Cc1c[nH]c2ccccc12)NC(=O)[C@H](NC(=O)[C@H](N)Cc1c[nH]cn1)[C@H](C)O)[C@H](C)O)[C@H](C)O)C(C)C)C(N)=O) [Mosd2] | – | reduce | increase | increase the ThT fluorescence | 67.145% | – | –
rprtrlhthrnr [Mosd D3] | – | – | – | – | – | significantly improved cognitive capabilities | much fewer plaques
